Results from the supplement of paper PMC9112550, “Optimization of the antimicrobial peptide Bac7 by deep mutational scanning” (BMC Biology, 2022).

Test system: Escherichia coli TOP10
Test: shrunken log2 fold change of peptide-encoding DNA abundance (4.5 h post-induction vs induction); higher = less antimicrobial activity (less host growth inhibition)
Settings: time post-induction: 4.5 h; library: site-saturation at positions 5, 18, 19, 20
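Further: peptides expressed intracellularly from a pBAD plasmid library in pooled LB shake-flask culture, induced with 0.3% L-arabinose, DNA abundance read by NGS, three biological replicates, DESeq2 with apeglm shrinkage.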

Sequence	shrunken log2 fold change
RRIRTRPPRLPRPRPRPNLPPRP	0.0474
RRIRDRPPRLPRPRPRPTMQPRP	0.625
RRIRQRPPRLPRPRPRPYCQPRP	-0.0564
RRIRYRPPRLPRPRPRPILFPRP	-0.945
RRIRTRPPRLPRPRPRPHKQPRP	-0.148
RRIRCRPPRLPRPRPRPDERPRP	-0.149
RRIRIRPPRLPRPRPRPNPQPRP	-0.287
RRIRERPPRLPRPRPRPGFYPRP	0.057
RRIRRRPPRLPRPRPRPADLPRP	-0.141
RRIRARPPRLPRPRPRPGSWPRP	0.759
RRIRERPPRLPRPRPRPDWCPRP	0.0337
RRIRQRPPRLPRPRPRPWAYPRP	-0.11
RRIRLRPPRLPRPRPRPIHRPRP	-0.163
RRIRSRPPRLPRPRPRPYAFPRP	-0.487
RRIRTRPPRLPRPRPRPTWHPRP	0.153
RRIRHRPPRLPRPRPRPPYKPRP	-0.31
RRIRCRPPRLPRPRPRPGHNPRP	-0.385
RRIRNRPPRLPRPRPRPRHAPRP	0.0219
RRIRLRPPRLPRPRPRPEVRPRP	-0.0732
RRIRKRPPRLPRPRPRPYHAPRP	0.0039
RRIRNRPPRLPRPRPRPCATPRP	-0.0524
RRIRVRPPRLPRPRPRPFQNPRP	0.00707

Sequence	shrunken log2 fold change
RRIRRRPPRLPRPRPRPIIKPRP	-0.265
RRIRFRPPRLPRPRPRPITAPRP	-0.286
RRIRYRPPRLPRPRPRPTKAPRP	-0.0298
RRIRDRPPRLPRPRPRPIMKPRP	-0.195
RRIRHRPPRLPRPRPRPMLKPRP	-0.164
RRIRMRPPRLPRPRPRPYPKPRP	0.0427
RRIRHRPPRLPRPRPRPNDMPRP	-0.26
RRIRKRPPRLPRPRPRPKVAPRP	1.23
RRIRTRPPRLPRPRPRPMVRPRP	-0.0017
RRIRHRPPRLPRPRPRPNRYPRP	-0.398
RRIRARPPRLPRPRPRPHQRPRP	0.0964
RRIRTRPPRLPRPRPRPDCNPRP	0.0556
RRIRQRPPRLPRPRPRPKALPRP	-0.0462
RRIRKRPPRLPRPRPRPAQRPRP	0.946
RRIRWRPPRLPRPRPRPRNSPRP	0.0821
RRIRYRPPRLPRPRPRPLNMPRP	-1.33
RRIRCRPPRLPRPRPRPWFRPRP	-0.269
RRIRGRPPRLPRPRPRPVGPPRP	0.762
RRIRMRPPRLPRPRPRPDSKPRP	0.732
RRIRARPPRLPRPRPRPYPGPRP	0.0384
RRIRLRPPRLPRPRPRPDTNPRP	-0.103
RRIRFRPPRLPRPRPRPTDVPRP	0.0385

Sequence	shrunken log2 fold change
RRIRVRPPRLPRPRPRPCPGPRP	0.00413
RRIRMRPPRLPRPRPRPWQHPRP	0.0948
RRIRNRPPRLPRPRPRPCQVPRP	-0.106
RRIRRRPPRLPRPRPRPWLHPRP	0.333
RRIRLRPPRLPRPRPRPLFTPRP	-0.232
RRIRLRPPRLPRPRPRPITYPRP	-0.266
RRIRRRPPRLPRPRPRPDQSPRP	0.0941
RRIRFRPPRLPRPRPRPSQFPRP	-0.44
RRIRGRPPRLPRPRPRPTSSPRP	0.425
RRIRGRPPRLPRPRPRPTREPRP	0.994
RRIRMRPPRLPRPRPRPHEEPRP	0.053
RRIRGRPPRLPRPRPRPDKRPRP	0.767
RRIRTRPPRLPRPRPRPQDHPRP	-0.805
RRIRLRPPRLPRPRPRPYCMPRP	-1.34
RRIRTRPPRLPRPRPRPYQFPRP	0.0636
RRIRMRPPRLPRPRPRPCHAPRP	-0.00133
RRIRLRPPRLPRPRPRPSVEPRP	0.0961
RRIRFRPPRLPRPRPRPCHTPRP	-0.17
RRIRNRPPRLPRPRPRPYPMPRP	0.133
RRIRGRPPRLPRPRPRPVIAPRP	0.506
RRIRPRPPRLPRPRPRPAYWPRP	0.212
RRIRPRPPRLPRPRPRPATSPRP	0.358

Sequence	shrunken log2 fold change
RRIRKRPPRLPRPRPRPHYKPRP	-0.446
RRIRERPPRLPRPRPRPSMSPRP	-0.0748
RRIRQRPPRLPRPRPRPVARPRP	0.0118
RRIRCRPPRLPRPRPRPLFFPRP	-0.273
RRIRVRPPRLPRPRPRPVAKPRP	0.233
RRIRMRPPRLPRPRPRPFCKPRP	-0.224
RRIRCRPPRLPRPRPRPVIGPRP	-0.18
RRIRNRPPRLPRPRPRPYYWPRP	-0.367
RRIRFRPPRLPRPRPRPITFPRP	-0.456
RRIRRRPPRLPRPRPRPEEQPRP	0.231
RRIRSRPPRLPRPRPRPHWCPRP	-0.125
RRIRTRPPRLPRPRPRPDIRPRP	0.0296
RRIRDRPPRLPRPRPRPVDTPRP	-0.0119
RRIRNRPPRLPRPRPRPFQCPRP	-0.0493
RRIRNRPPRLPRPRPRPRQYPRP	0.0612
RRIRRRPPRLPRPRPRPHNQPRP	-0.114
RRIRMRPPRLPRPRPRPPSEPRP	0.962
RRIRWRPPRLPRPRPRPHMTPRP	0.118
RRIRWRPPRLPRPRPRPVLIPRP	-0.0326
RRIRTRPPRLPRPRPRPKFPPRP	-0.0959
RRIRDRPPRLPRPRPRPIRPPRP	-0.0136
RRIRRRPPRLPRPRPRPKNDPRP	0.277

Sequence	shrunken log2 fold change
RRIRPRPPRLPRPRPRPRQEPRP	3.83
RRIRPRPPRLPRPRPRPKNQPRP	-0.108
RRIRNRPPRLPRPRPRPYWEPRP	-0.293
RRIRVRPPRLPRPRPRPHYKPRP	-0.389
RRIRYRPPRLPRPRPRPDARPRP	-0.294
RRIRNRPPRLPRPRPRPAGKPRP	-0.0122
RRIRQRPPRLPRPRPRPYDKPRP	-0.119
RRIRTRPPRLPRPRPRPAHSPRP	0.0608
RRIRCRPPRLPRPRPRPTSHPRP	-0.348
RRIRCRPPRLPRPRPRPHRTPRP	-0.209
RRIRIRPPRLPRPRPRPGMMPRP	-0.453
RRIRTRPPRLPRPRPRPITFPRP	-0.108
RRIRQRPPRLPRPRPRPWPKPRP	0.097
RRIRARPPRLPRPRPRPNMVPRP	-0.175
RRIRKRPPRLPRPRPRPYWIPRP	-0.0363
RRIRIRPPRLPRPRPRPQDVPRP	-0.0964
RRIRYRPPRLPRPRPRPYSQPRP	-0.505
RRIRSRPPRLPRPRPRPCGMPRP	-0.0447
RRIRQRPPRLPRPRPRPYNRPRP	-0.0882
RRIRGRPPRLPRPRPRPPKNPRP	1.11
RRIRRRPPRLPRPRPRPMVHPRP	0.113
